Data reported in patent EP4671273A1 (Anaveon AG, dated 2025).

B1: VYL308 (bispecific antibody, human IgG1, kappa, lambda, L234A L235A)
heavy 1: EVQLLESGGGLVQPGGSLRLSCAASGFTFSINAMTWVRQAPGKGLEWVSTISGSGFSTYYADSLKGRFTISRDNSKNTLYLQMNSLRAEDTAVYYCAKEVYGDYWGQGTLVTVSSASTKGPSVFPLAPSSKSTSGGTAALGCLVKDYFPEPVTVSWNSGALTSGVHTFPAVLQSSGLYSLSSVVTVPSSSLGTQTYICNVNHKPSNTKVDKRVEPKSCDKTHTCPPCPAPEAAGGPSVFLFPPKPKDTLMISRTPEVTCVVVDVSHEDPEVKFNWYVDGVEVHNAKTKPREEQYNSTYRVVSVLTVLHQDWLNGKEYKCKVSNKALAAPIEKTISKAKGQPREPQVCTLPPSREEMTKNQVSLSCAVKGFYPSDIAVEWESNGQPENNYKTTPPVLDSDGSFFLVSKLTVDKSRWQQGNVFSCSVMHEALHNHYTQKSLSLSPGK
light 1: not shown
heavy 2: QVQLQESGPGLVKPSETLSLTCTVSGGSISSDYWGWIRQPPGKGLEWIGYISYRGSTNYNPSLKSRVTISVDTSRNQFSLKLSSVTAADTAVYYCARSAGVTDFDAWGQGTLVTVSSASTKGPSVFPLAPSSKSTSGGTAALGCLVKDYFPEPVTVSWNSGALTSGVHTFPAVLQSSGLYSLSSVVTVPSSSLGTQTYICNVNHKPSNTKVDKRVEPKSCDKTHTCPPCPAPEAAGGPSVFLFPPKPKDTLMISRTPEVTCVVVDVSHEDPEVKFNWYVDGVEVHNAKTKPREEQYNSTYRVVSVLTVLHQDWLNGKEYKCKVSNKALAAPIEKTISKAKGQPREPQVYTLPPCREEMTKNQVSLWCLVKGFYPSDIAVEWESNGQPENNYKTTPPVLDSDGSFFLYSKLTVDKSRWQQGNVFSCSVMHEALHNHYTQKSLSLSPGK
light 2: not shown
B2: EXX354 (bispecific antibody, human IgG1, kappa, lambda, L234A L235A)
heavy 1: EVQLLESGGGLVQPGGSLRLSCAASGFTFSINAMTWVRQAPGKGLEWVSTISGSGFSTYYADSLKGRFTISRDNSKNTLYLQMNSLRAEDTAVYYCAKEVYGDYWGQGTLVTVSSASTKGPSVFPLAPSSKSTSGGTAALGCLVKDYFPEPVTVSWNSGALTSGVHTFPAVLQSSGLYSLSSVVTVPSSSLGTQTYICNVNHKPSNTKVDKRVEPKSCDKTHTCPPCPAPEAAGGPSVFLFPPKPKDTLMISRTPEVTCVVVDVSHEDPEVKFNWYVDGVEVHNAKTKPREEQYNSTYRVVSVLTVLHQDWLNGKEYKCKVSNKALAAPIEKTISKAKGQPREPQVCTLPPSREEMTKNQVSLSCAVKGFYPSDIAVEWESNGQPENNYKTTPPVLDSDGSFFLVSKLTVDKSRWQQGNVFSCSVMHEALHNHYTQKSLSLSPGK
light 1: not shown
heavy 2: not shown
light 2: DIQMTQSPSSVSASVGDRVTITCRASQGISSWLAWYQHKPGKAPKLLIYVASSLQSGVPSRFSGSGSGTDFTLTISSLQPEDFATYYCQQANSAPLTFGGGTKVEIKRTVAAPSVFIFPPSDEQLKSGTASVVCLLNNFYPREAKVQWKVDNALQSGNSQESVTEQDSKDSTYSLSSTLTLSKADYEKHKVYACEVTHQGLSSPVTKSFNRGEC
B3: JKJ112 (bispecific antibody, human IgG1, kappa, lambda, L234A L235A)
heavy 1: EVQLLESGGGLVQPGGSLRLSCAASGFTFSINAMTWVRQAPGKGLEWVSTISGSGFSTYYADSLKGRFTISRDNSKNTLYLQMNSLRAEDTAVYYCAKEVYGDYWGQGTLVTVSSASTKGPSVFPLAPSSKSTSGGTAALGCLVKDYFPEPVTVSWNSGALTSGVHTFPAVLQSSGLYSLSSVVTVPSSSLGTQTYICNVNHKPSNTKVDKRVEPKSCDKTHTCPPCPAPEAAGGPSVFLFPPKPKDTLMISRTPEVTCVVVDVSHEDPEVKFNWYVDGVEVHNAKTKPREEQYNSTYRVVSVLTVLHQDWLNGKEYKCKVSNKALAAPIEKTISKAKGQPREPQVCTLPPSREEMTKNQVSLSCAVKGFYPSDIAVEWESNGQPENNYKTTPPVLDSDGSFFLVSKLTVDKSRWQQGNVFSCSVMHEALHNHYTQKSLSLSPGK
light 1: not shown
heavy 2: not shown
light 2: DIQMTQSPSSVSASVGDRVTITCRASQGISSWLAWYQHKPGKAPKLLIYVASSLQSGVPSRFSGSGSGTDFTLTISSLQPEDFATYYCQQANSFPLTFGGGTKVEIKRTVAAPSVFIFPPSDEQLKSGTASVVCLLNNFYPREAKVQWKVDNALQSGNSQESVTEQDSKDSTYSLSSTLTLSKADYEKHKVYACEVTHQGLSSPVTKSFNRGEC
B4: OUQ507 (bispecific antibody, human IgG1, kappa, lambda, L234A L235A)
heavy 1: EVQLLESGGGLVQPGGSLRLSCAASGFTFSINAMTWVRQAPGKGLEWVSTISGSGFSTYYADSLKGRFTISRDNSKNTLYLQMNSLRAEDTAVYYCAKEVYGDYWGQGTLVTVSSASTKGPSVFPLAPSSKSTSGGTAALGCLVKDYFPEPVTVSWNSGALTSGVHTFPAVLQSSGLYSLSSVVTVPSSSLGTQTYICNVNHKPSNTKVDKRVEPKSCDKTHTCPPCPAPEAAGGPSVFLFPPKPKDTLMISRTPEVTCVVVDVSHEDPEVKFNWYVDGVEVHNAKTKPREEQYNSTYRVVSVLTVLHQDWLNGKEYKCKVSNKALAAPIEKTISKAKGQPREPQVCTLPPSREEMTKNQVSLSCAVKGFYPSDIAVEWESNGQPENNYKTTPPVLDSDGSFFLVSKLTVDKSRWQQGNVFSCSVMHEALHNHYTQKSLSLSPGK
light 1: not shown
heavy 2: not shown
light 2: DIQMTQSPSSVSASVGDRVTITCRASQGISSWLAWYQHKPGKAPKLLIYVASSLQSGVPSRFSGSGSGTDFTLTISSLQPEDFATYYCQQANSAPLTFGGGTKVEIKRTVAAPSVFIFPPSDEQLKSGTASVVCLLNNFYPREAKVQWKVDNALQSGNSQESVTEQDSKDSTYSLSSTLTLSKADYEKHKVYACEVTHQGLSSPVTKSFNRGEC
B5: DHJ369 (bispecific antibody, human IgG1, kappa, lambda, L234A L235A)
heavy 1: EVQLLESGGGLVQPGGSLRLSCAASGFTFSINAMTWVRQAPGKGLEWVSTISGSGFSTYYADSLKGRFTISRDNSKNTLYLQMNSLRAEDTAVYYCAKEVYGDYWGQGTLVTVSSASTKGPSVFPLAPSSKSTSGGTAALGCLVKDYFPEPVTVSWNSGALTSGVHTFPAVLQSSGLYSLSSVVTVPSSSLGTQTYICNVNHKPSNTKVDKRVEPKSCDKTHTCPPCPAPEAAGGPSVFLFPPKPKDTLMISRTPEVTCVVVDVSHEDPEVKFNWYVDGVEVHNAKTKPREEQYNSTYRVVSVLTVLHQDWLNGKEYKCKVSNKALAAPIEKTISKAKGQPREPQVCTLPPSREEMTKNQVSLSCAVKGFYPSDIAVEWESNGQPENNYKTTPPVLDSDGSFFLVSKLTVDKSRWQQGNVFSCSVMHEALHNHYTQKSLSLSPGK
light 1: not shown
heavy 2: not shown
light 2: DIQMTQSPSSVSASVGDRVTITCRASQGISSWLAWYQHKPGKAPKLLIYVASSLQSGVPSRFSGSGSGTDFTLTISSLQPEDFATYYCQQANSFPLTFGGGTKVEIKRTVAAPSVFIFPPSDEQLKSGTASVVCLLNNFYPREAKVQWKVDNALQSGNSQESVTEQDSKDSTYSLSSTLTLSKADYEKHKVYACEVTHQGLSSPVTKSFNRGEC
B6: CMQ332 (bispecific antibody, human IgG1, kappa, lambda, L234A L235A)
heavy 1: EVQLLESGGGLVQPGGSLRLSCAASGFTFSINAMTWVRQAPGKGLEWVSTISGSGFSTYYADSLKGRFTISRDNSKNTLYLQMNSLRAEDTAVYYCAKEVYGDYWGQGTLVTVSSASTKGPSVFPLAPSSKSTSGGTAALGCLVKDYFPEPVTVSWNSGALTSGVHTFPAVLQSSGLYSLSSVVTVPSSSLGTQTYICNVNHKPSNTKVDKRVEPKSCDKTHTCPPCPAPEAAGGPSVFLFPPKPKDTLMISRTPEVTCVVVDVSHEDPEVKFNWYVDGVEVHNAKTKPREEQYNSTYRVVSVLTVLHQDWLNGKEYKCKVSNKALAAPIEKTISKAKGQPREPQVCTLPPSREEMTKNQVSLSCAVKGFYPSDIAVEWESNGQPENNYKTTPPVLDSDGSFFLVSKLTVDKSRWQQGNVFSCSVMHEALHNHYTQKSLSLSPGK
light 1: not shown
heavy 2: not shown
light 2: DIQMTQSPSSVSASVGDRVTITCRASQGISSWLAWYQHKPGKAPKLLIYVASSLQSGVPSRFSGSGSGTDFTLTISSLQPEDFATYYCQQANSAPLTFGGGTKVEIKRTVAAPSVFIFPPSDEQLKSGTASVVCLLNNFYPREAKVQWKVDNALQSGNSQESVTEQDSKDSTYSLSSTLTLSKADYEKHKVYACEVTHQGLSSPVTKSFNRGEC
B7: ZBA121 (bispecific antibody, human IgG1, kappa, lambda, L234A L235A)
heavy 1: EVQLLESGGGLVQPGGSLRLSCAASGFTFSINAMTWVRQAPGKGLEWVSTISGSGFSTYYADSLKGRFTISRDNSKNTLYLQMNSLRAEDTAVYYCAKEVYGDYWGQGTLVTVSSASTKGPSVFPLAPSSKSTSGGTAALGCLVKDYFPEPVTVSWNSGALTSGVHTFPAVLQSSGLYSLSSVVTVPSSSLGTQTYICNVNHKPSNTKVDKRVEPKSCDKTHTCPPCPAPEAAGGPSVFLFPPKPKDTLMISRTPEVTCVVVDVSHEDPEVKFNWYVDGVEVHNAKTKPREEQYNSTYRVVSVLTVLHQDWLNGKEYKCKVSNKALAAPIEKTISKAKGQPREPQVCTLPPSREEMTKNQVSLSCAVKGFYPSDIAVEWESNGQPENNYKTTPPVLDSDGSFFLVSKLTVDKSRWQQGNVFSCSVMHEALHNHYTQKSLSLSPGK
light 1: not shown
heavy 2: not shown
light 2: DIQMTQSPSSVSASVGDRVTITCRASQGISSWLAWYQHKPGKAPKLLIYVASSLQSGVPSRFSGSGSGTDFTLTISSLQPEDFATYYCQQANSFPLTFGGGTKVEIKRTVAAPSVFIFPPSDEQLKSGTASVVCLLNNFYPREAKVQWKVDNALQSGNSQESVTEQDSKDSTYSLSSTLTLSKADYEKHKVYACEVTHQGLSSPVTKSFNRGEC
B8: JAK529 (bispecific antibody, human IgG1, kappa, lambda, L234A L235A)
heavy 1: EVQLLESGGGLVQPGGSLRLSCAASGFTFSINAMTWVRQAPGKGLEWVSTISGSGFSTYYADSLKGRFTISRDNSKNTLYLQMNSLRAEDTAVYYCAKEVYGDYWGQGTLVTVSSASTKGPSVFPLAPSSKSTSGGTAALGCLVKDYFPEPVTVSWNSGALTSGVHTFPAVLQSSGLYSLSSVVTVPSSSLGTQTYICNVNHKPSNTKVDKRVEPKSCDKTHTCPPCPAPEAAGGPSVFLFPPKPKDTLMISRTPEVTCVVVDVSHEDPEVKFNWYVDGVEVHNAKTKPREEQYNSTYRVVSVLTVLHQDWLNGKEYKCKVSNKALAAPIEKTISKAKGQPREPQVCTLPPSREEMTKNQVSLSCAVKGFYPSDIAVEWESNGQPENNYKTTPPVLDSDGSFFLVSKLTVDKSRWQQGNVFSCSVMHEALHNHYTQKSLSLSPGK
light 1: not shown
heavy 2: not shown
light 2: DIQMTQSPSSVSASVGDRVTITCRASQGISSWLAWYQHKPGKAPKLLIYVASSLQSGVPSRFSGSGSGTDFTLTISSLQPEDFATYYCQQANSAPLTFGGGTKVEIKRTVAAPSVFIFPPSDEQLKSGTASVVCLLNNFYPREAKVQWKVDNALQSGNSQESVTEQDSKDSTYSLSSTLTLSKADYEKHKVYACEVTHQGLSSPVTKSFNRGEC

target: T1, human IL-21 receptor (IL-21R) on cells (human, UniProt Q9HBE5 20-538; P31785 23-369); assay: cell-based or functional assay
T1 sequence (Q9HBE5 20-538, chain 1 of 2): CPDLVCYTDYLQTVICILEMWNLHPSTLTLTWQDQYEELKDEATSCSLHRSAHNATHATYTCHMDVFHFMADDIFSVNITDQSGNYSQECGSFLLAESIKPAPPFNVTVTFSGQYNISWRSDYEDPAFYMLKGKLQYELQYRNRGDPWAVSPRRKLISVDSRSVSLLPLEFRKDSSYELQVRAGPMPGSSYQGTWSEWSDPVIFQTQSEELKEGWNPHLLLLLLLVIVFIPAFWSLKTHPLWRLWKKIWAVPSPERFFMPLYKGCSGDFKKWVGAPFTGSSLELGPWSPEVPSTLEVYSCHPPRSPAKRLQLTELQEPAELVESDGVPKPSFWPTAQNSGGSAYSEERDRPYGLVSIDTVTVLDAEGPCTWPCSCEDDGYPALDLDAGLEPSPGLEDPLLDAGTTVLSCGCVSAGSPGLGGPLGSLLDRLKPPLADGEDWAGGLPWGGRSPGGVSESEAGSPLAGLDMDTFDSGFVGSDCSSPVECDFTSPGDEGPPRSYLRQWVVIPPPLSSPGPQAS
T1 sequence (P31785 23-369, chain 2 of 2): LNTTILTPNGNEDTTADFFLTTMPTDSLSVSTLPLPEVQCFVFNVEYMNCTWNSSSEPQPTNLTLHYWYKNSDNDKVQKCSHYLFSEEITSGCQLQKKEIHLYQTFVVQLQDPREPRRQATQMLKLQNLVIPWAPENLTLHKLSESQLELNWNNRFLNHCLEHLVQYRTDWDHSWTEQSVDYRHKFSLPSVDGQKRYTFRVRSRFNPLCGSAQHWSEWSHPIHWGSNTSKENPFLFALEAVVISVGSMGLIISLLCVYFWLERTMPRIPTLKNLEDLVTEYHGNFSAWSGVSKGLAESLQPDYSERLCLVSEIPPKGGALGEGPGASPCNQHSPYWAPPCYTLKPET

| Binder | EC50B, pSTAT3+ Jurkat PD-1 cells, PD-1 blocked [pM] | EC50NB, pSTAT3+ Jurkat PD-1 cells [pM] |
| --- | --- | --- |
| B1 | 56 | 0.7 |

target: T1, human IL-21 receptor (IL-21R) on cells; assay: cell-based or functional assay; remark: another data set of the same source

| Binder | EC50B, pSTAT3+ Jurkat PD-1 cells, PD-1 blocked | EC50NB, pSTAT3+ Jurkat PD-1 cells |
| --- | --- | --- |
| B2 | 0.28 nM | 39 pM |
| B3 | 17.2 nM | 0.52 nM |
| B4 | 0.42 nM | 24 pM |
| B5 | 2.56 nM | 0.24 nM |
| B6 | 34 pM | 12 pM |
| B7 | 103 nM | 0.86 nM |
| B8 | 0.44 nM | 27 pM |
